What was measured:
[1] = biological target: SIINFEKL-specific TCR on CD8+ T-cells of OT-I transgenic mice; experiment: flow cytometry, dextramer staining of OT-I activated CD8+ T-cells
[2] = biological target: OVA peptide SIINFEKL-MHC complex (OVA257-264 presented in the context of MHC class I H-2K^b) on tumor cells (chicken); experiment: cell-based or functional assay

percent of cells positive [1] [%]	IL-2 (pg/ml) from B3Z T-cells; B16F10 tumor cells, OVA 0.25 mg/ml [2] [pg/mL]	IL-2 (pg/ml) from B3Z T-cells; B16F10 tumor cells, OVA 0.5 mg/ml [2] [pg/mL]	IL-2 (pg/ml) from B3Z T-cells; B16F10 tumor cells, OVA 1.0 mg/ml [2] [pg/mL]	IL-2 (pg/ml) from B3Z T-cells; B16F10 tumor cells, OVA 2.5 mg/ml [2] [pg/mL]	IL-2 (pg/ml) from B3Z T-cells; KP LUN31 tumor cells, OVA 0.125 mg/ml [2] [pg/mL]	IL-2 (pg/ml) from B3Z T-cells; KP LUN31 tumor cells, OVA 0.25 mg/ml [2] [pg/mL]	IL-2 (pg/ml) from B3Z T-cells; KP LUN31 tumor cells, OVA 0.5 mg/ml [2] [pg/mL]	IL-2 (pg/ml) from B3Z T-cells; KP LUN31 tumor cells, OVA 1.0 mg/ml [2] [pg/mL]	IL-2 (pg/ml) from B3Z T-cells; KP LUN31 tumor cells, OVA 2.5 mg/ml [2] [pg/mL]	IL-2 (pg/ml) from B3Z T-cells; LL2 tumor cells, OVA 2.5 mg/ml [2] [pg/mL]	IL-2 (pg/ml) from B3Z T-cells; LL2 tumor cells, OVA 5.0 mg/ml [2] [pg/mL]	IL-2 (pg/ml) from B3Z T-cells; LL2 tumor cells, OVA 10 mg/ml [2] [pg/mL]	IL-2 (pg/ml) from B3Z T-cells; MC38 tumor cells, OVA 2.5 mg/ml [2] [pg/mL]	IL-2 (pg/ml) from B3Z T-cells; MC38 tumor cells, OVA 5.0 mg/ml [2] [pg/mL]	IL-2 (pg/ml) from B3Z T-cells; MC38 tumor cells, OVA 10 mg/ml [2] [pg/mL]	Substance
100	–	–	–	–	–	–	–	–	–	–	–	–	–	–	–	H-2 Kb SIINFEKL-APC conjugated dextramer (Immudex) (from UniProt P01901 22-369) (peptide-MHC)
–	22	76	323	589	22	68	247	483	913	11	26	33	54	138	338	T-cell receptor (TCR) of the T-cell hybridoma B3Z86/90.14 (B3Z)

Reference: US20190048094A1
